These results are taken from patent US10100129B2, “Antibodies against CD73 and uses thereof” (BRISTOL-MYERS SQUIBB COMPANY, priority 2014, dated 2018).

The target in one series is human FcγRs. Briefly: SPR binding profile to human FcγRs (panel). As to the method: Binding of the constructs to human FcγRs was measured via SPR. hCD64 and hCD32a-H131 binding data for IgG1.1 and IgG2 molecules were consistent with expected values for the different Fcs. IgG1.1f is the most inert Fc.
(§1) The binding of antibodies to Fc gamma receptors (FcγRs or FcgRs) was studied using biosensor technologies including Biacore surface plasmon resonance (SPR) and Fortebio Biolayer Interferometry (BLI). SPR studies were performed on a Biacore T100 instrument (GE Healthcare) at 25° C. The Fab fragment from a murine anti-6×His antibody was immobilized on a CM5 sensor chip using EDC/NHS to a density of ˜3000 RU. Various his-tagged FcgRs (7 ug/ml) were captured via the C-terminal his-tag using a contact time of 30 s at 10 ul/min, and the binding of 1.0 μM antibody was evaluated in a running buffer of 10 mM NaPO4, 130 mM NaCl, 0.05% p20 (PBS-T) pH 7.1. FcgRs used for these experiments included CD64 (FcgRI), CD32a-H131 (FcgRIIa-H131), CD32a-R131 (FcgRIIa-R131), CD32b (FcgRIIb), CD16a-V158 (FcgRIIIa-V158), CD16b-NA1 (FcgRIIIb-NA1), and CD16B-NA2 (FcgRIIIb-NA2). BLI experiments were performed on a Fortebio Octet RED instrument (Pall, Fortebio) at 25° C. in 10 mM NaPO4, 130 mM NaCl, 0.05% p20 (PBS-T) pH 7.1. Antibodies were captured out of undiluted expression supernatants on protein A coated sensors, followed by the binding of 1 μM hCD32a-H131, hCD32a-R131, hCD32b, hCD16a-V158, or 0.1 μM hCD64 analytes.
This engineering strategy was further explored by producing other antibodies formatted with IgG2.3G1-AY, IgG2.3G1-AY-S267E (IgG2.3G1-AY-V27), as well as IgG2-B-form variants (IgG2.5G1-AY and IgG2.5G1-AY-V27), and other hybrid antibodies containing different combinations of IgG1 and IgG2 constant domains, and testing the binding of these antibodies to anti-his Fab captured his-tagged FcgRs using Biacore SPR technology.
On the technique in general: Surface plasmon resonance follows binding to a sensor surface in real time, without labels.

For the next series, the target named is cyno FcγRs. The series can be described thus: SPR binding to cyno FcγRs. Further details: species or system cynomolgus. The conditions noted are these: read-out: binding affinity to cyno FcγRs.
For another series, the target named is T1, CD73 on Calu6 cells (Homo sapiens, UniProt P21589).
T1 construct: Calu6 (CD73 endogenous expressors; human pulmonary adenocarcinoma cell line); endogenous in cells; host or cells: Calu6, NCI-H292, SK-MEL-24, SNU-C1, NCI-H1437, H2228, HCC15, H2030 and further human tumour lines
T1 sequence (P21589 27-549): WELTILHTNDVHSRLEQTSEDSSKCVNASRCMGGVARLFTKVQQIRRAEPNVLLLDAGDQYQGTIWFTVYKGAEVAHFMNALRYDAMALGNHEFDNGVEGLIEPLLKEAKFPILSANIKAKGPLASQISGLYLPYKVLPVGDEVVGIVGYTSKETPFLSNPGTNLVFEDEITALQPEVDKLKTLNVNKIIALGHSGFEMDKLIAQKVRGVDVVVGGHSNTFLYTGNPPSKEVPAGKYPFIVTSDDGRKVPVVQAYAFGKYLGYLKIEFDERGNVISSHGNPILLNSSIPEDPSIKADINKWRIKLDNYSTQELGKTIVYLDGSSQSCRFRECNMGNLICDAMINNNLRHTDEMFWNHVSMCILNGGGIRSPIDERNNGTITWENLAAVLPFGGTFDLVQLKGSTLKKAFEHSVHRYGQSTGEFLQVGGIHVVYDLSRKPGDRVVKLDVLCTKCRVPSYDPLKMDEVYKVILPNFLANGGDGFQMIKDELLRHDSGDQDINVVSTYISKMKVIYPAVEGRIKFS
Briefly: Dual cell line HTRF cAMP assay (Calu-6 and HEK293/A2AR cells). It counts as cell-based. (In general: TR-FRET usually uses a lanthanide donor and a delayed reading to cut background.)

The target of the next series is T2, CD73 (Homo sapiens, UniProt P21589).
T2 sequence (P21589 27-549): T1 sequence (P21589 27-549)
Briefly: CD73 internalization at 1, 4 or 21 hours by CD73.4 with heavy chain constant region variants (FIG. 31). It counts as cell-based. Further details: endogenous in cells. The conditions noted are these: CD73.4 variable regions with the named constant region. The method, then: The bars for each antibody are shown in the order of 21 hours (on the left), 4 hours (middle) and 1 hour (right).
Anti-CD73 antibodies (CD73.4) with the heavy chain constant regions shown in Table 31 were prepared and tested as described above in antibody mediated CD73 internalization assays.

Series [1] relates to hCD32a-H131, hCD32a-R131, hCD32b, hCD16a-V158, hCD64. The series can be described thus: Fortebio Octet BLI binding of protein A-captured antibodies to FcgR analytes. Details: species or system human. The conditions noted are these: expression supernatants. As to the method:
as §1
The next set of constructs was used to engineer effector function into the otherwise effector function negative IgG2 isotype. […]
For orientation: Biolayer interferometry detects binding as a change in optical thickness at a sensor tip.

The nature of series [2]: SEC-MALS oligomeric state of CD73 mAbs. It counts as physicochemical. As to the method: The oligomeric state of CD73 mAbs were examined by size-exclusion chromatography coupled to an in-line multi-angle light scattering detector (SEC-MALS). Isocratic separations were performed on a Shodex PROTEIN KW-803 column connected to an Prominence Shimadzu UFLC in buffer containing 200 mM K2HPO4, 150 mM NaCl, pH 6.8, containing 0.02% Na azide (0.1 μm filtered) running at 0.5 mL/min. Samples were injected onto the column using a SIL-20AC Prominence Shimadzu autosampler, and data were obtained from three online detectors connected in series: a Prominence SPD-20AD diode array UV/vis spectrophotometer followed by a Wyatt miniDAWN™ TREOS Multi-Angle Light Scattering Detector then a Wyatt Optilab T-rEX Refractive Index Detector. Data (as shown in Table 15 below) were collected and analyzed using Astra (Wyatt) and Labsolutions (Shimadzu) software.

The target in a further series is T3, CD73 on NCI-H292 cells (Homo sapiens, UniProt P21589).
T3 construct: endogenous in cells; host or cells: NCI-H292
T3 sequence (P21589 27-549): T1 sequence (P21589 27-549)
The series can be described thus: Flow cytometry based cross-blocking on NCI-H292 cells. It counts as binding. The note with it: FITC-labeled 11F11, NCI-H292 cells. The method, then:
The antibodies were also subjected to flow cytometry based cross-blocking. The experiment was conducted as follows using one set of labeled fluorescently labeled antibody and a second set of unlabeled antibody: 100000 NCI-H292 cells were seeded per well. The plate was spun down and the cells were resuspended in 100 uL 2% FBS in PBS per well. The cells were blocked on ice for 20 min. Unlabeled antibody, as indicated, in 2% FBS in PBS was added to each well. […] 6 wells of cells were incubated without antibody, and were resuspended in 100 uL 2% FBS in PBS only (for controls). The cells were then incubated on ice for 30 min. The cells were washed twice with 2% FBS in PBS and the samples were resuspended in 140 uL 2% FBS in PBS, and analyzed on a FacsCalibur flow cytometer (Becton Dickinson).

Where a chain is given by its changes, count along the chain named. Names may count otherwise. A value given as a limit tells only on which side of the number the result lay.

In general, IC50 refers to the midpoint of a concentration-inhibition curve. A higher IC50 goes with weaker potency in that assay.

Method for CD73 on Calu6 cells: Inhibition of CD73 Enzymatic Activity in a Dual Cell Line cAMP Assay Homogenous Time Resolved Fluorescence (HTRF) cAMP Assay
CD73 antibodies were serial diluted with PBS buffer containing 0.2% BSA, and plated 5 μl/well in 384 well white bottom proxiplate (PerkinElmer, Waltham, Mass.). Calu-6 cells were harvested and resuspend in PBS containing 0.2% BSA, then 5 μl of cells (300 cells/well) were added to the plate. The cells were incubated with antibodies for 10 minutes at 37° C. […] The cells were further incubated with AMP for 30 minutes at 37° C. During this time, HEK293/A2AR cells were harvested and diluted to 0.4 million/ml in PBS containing 0.2% BSA. […] HRTF assays were performed using the homogenous time-resolved fluorescence (HTRF) HiRange cAMP detection kit (Cisbio, Bedford, Mass.) by adding 10 μl/well cAMP-conjugated d2 and 10 μl/well europium cryptate conjugated anti-cAMP antibody in lysis buffer according to the manufacturer's instructions. Plates were incubated at room temperature for 60 minutes and Fluorescence Resonance Energy Transfer (FRET) signals (665 and 615 nM) were read using an EnVision plate reader (PerkinElmer, Waltham, Mass.). The FRET signal was calculated as the ratio of signal from the 665 nm (acceptor) and 615 nm (donor) channels and multiplied by 10.000. IC50 and Ymax were measured. […]

For the molecule “IgG2-C219S-G1.1f: effectorless IgG1/IgG2 hybrid constant region: CH1 and hinge from IgG2 (C219S), CH2 and CH3 of IgG1 (A330S/P331S); SEQ ID NO:169”, the Kd at human FcγRs (read-out: binding affinity to all other FcγRs) is less than 5 µM; on cyno FcγRs, more than 5 µM.

`Nc1ncnc2c1ncn2[C@@H]1O[C@H](COP(=O)(O)CP(=O)(O)O)[C@@H](O)[C@H]1O` [APCP] yielded an IC50 against CD73 on Calu6 cells (cAMP assay) of 0.00129 µM. Further, on CD73 on Calu6 cells (percentage of inhibition relative to 100 nM 11F11 set to 100%), the Ymax is reported as 97.

B1: IgG2.3plusTHT: modified IgG2.3 constant region construct (protein)
chain: ASTKGPSVFPLAPCSRSTSESTAALGCLVKDYFPEPVTVSWNSGALTSGVHTFPAVLQSSGLYSLSSVVTVPSSNFGTQTYTCNVDHKPSNTKVDKTVERKSCVETHTCPPCPAPPVAGPSVFLFPPKPKDTLMISRTPEVTCVVVDVSHEDPEVQFNWYVDGVEVHNAKTKPREEQFNSTFRVVSVLTVVHQDWLNGKEYKCKVSNKGLPAPIEKTISKTKGQPREPQVYTLPPSREEMTKNQVSLTCLVKGFYPSDIAVEWESNGQPENNYKTTPPMLDSDGSFFLYSKLTVDKSRWQQGNVFSCSVMHEALHNHYTQKSLSLSPGK
modifications: Synthetic: IgG2.3-plusTHT
notes: modified IgG2.3 constant region construct
For the molecule B1, the “FcgR binding properties by SPR (in words)” value (“FcgR binding properties” for short) with human FcγRs is reported as “unable to retain IgG1f-like FcgR binding properties”.

B2: IgG2.3plusGGG: modified IgG2.3 constant region construct (protein)
chain: B1 chain with T106G, H107G, T108G
modifications: Synthetic: IgG2.3-plusGGG
notes: as for B1
Consider B2, for which the “FcgR binding properties” value with human FcγRs is on record as “unable to retain IgG1f-like FcgR binding properties”.

B3: IgG2.5plusTHT: modified IgG2.5 constant region construct (protein)
chain: B1 chain with C14S, S102C
modifications: Synthetic: IgG2.5-plusTHT
notes: modified IgG2.5 constant region construct
Regarding B3, in the series on human FcγRs, the “FcgR binding properties” value is “unable to retain IgG1f-like FcgR binding properties”.

B4: IgG2.3/4: CD73.4 with IgG2 constant region with C219S/C220S (protein)
chain: ASTKGPSVFPLAPCSRSTSESTAALGCLVKDYFPEPVTVSWNSGALTSGVHTFPAVLQSSGLYSLSSVVTVPSSNFGTQTYTCNVDHKPSNTKVDKTVERKSSVECPPCPAPPVAGPSVFLFPPKPKDTLMISRTPEVTCVVVDVSHEDPEVQFNWYVDGVEVHNAKTKPREEQFNSTFRVVSVLTVVHQDWLNGKEYKCKVSNKGLPAPIEKTISKTKGQPREPQVYTLPPSREEMTKNQVSLTCLVKGFYPSDIAVEWESNGQPENNYKTTPPMLDSDGSFFLYSKLTVDKSRWQQGNVFSCSVMHEALHNHYTQKSLSLSPGK
modifications: Synthetic: IgG2.3/4
notes: CD73.4 with IgG2 constant region with C219S/C220S
Take B4: in the series with CD73, the “antibody mediated CD73 internalization (in words)” value is recorded as “much reduced internalization compared to IgG2.3 or IgG2.4 alone”.

B5: IgG2.3: antibody with IgG2 constant region with C219S (protein)
constant: B4 chain with S103C
modifications: left off: another chain or arm of the molecule
notes: antibody with IgG2 constant region with C219S
Take B5: the “FcgR binding profile by BLI (in words)” value in series [1] is recorded as “appreciable binding to only CD32a-H131”.

B6: 7A11: human anti-CD73 monoclonal antibody, IgG1za; VH SEQ ID NO: 88, VL SEQ ID NO: 92 (antibody, V domains shown)
VH: EVQLVESGGGLVQTGRSLRLSCAASGFTFDDYAMHWVRQAPGKGLEWVSDISWNSDIIGYADSVKGRFTISRDNAKNSLYLQMNSLRAEDTALYYCAKDIYGSGSSFFDYWGQGILVTVSS
VL: DIQMTQSPSSLSASVGDRVTITCRASQYISSWLAWYQQKPEKAPKSLIYAASSLQSGVPSRFSGSGSGTDFTLTISSLQPEDFATYYCQQYHSYPPTFGQGTRLEIK
modifications: Synthetic: 7A11 VH; Synthetic: 7A11 VK1
In the case of B6, in series [2], the “SEC % HMW” value is listed as 0.5%, the “SEC % LMW” value is on record as 0.5% and the “SEC % Monomer” value is recorded as 98.5%. Further, the “competition with 11F11 (cross-blocking)” value with CD73 on NCI-H292 cells is “competes with 11F11”.
